# Laboratory results from article PMC3094553 (Nature methods, 2009).
# Values joined by “and” are separate entries in the source; they are usually repeats but may differ in a detail not shown here. Identical values can stand only once.
# B1: PF0619 (conserved hypothetical protein) (natural protein)
# chain: MLVPGRVYLFRIPEGKEIIEFLREFAEKENIKVGIISAIGTLRNPVIGYFMEEEKKYKEISLTGTYELLSLSGNISLKDGKPFVHAHVVLGDSEGRAFGGHLVRGEVFVAEVFVQELEGETLERKPTEHGLALW
# B2: PF1291 (phosphoesterase) (natural protein)
# chain: MVYVAVLANIAGNLPALTAALSRIEEMREEGYEIEKYYILGNIVGLFPYPKEVIEVIKDLTKKENVKIIRGKYDQIIAMSDPHATDPGYIDKLELPGHVKKALKFTWEKLGHEGREYLRDLPIYLVDKIGGNEVFGVYGSPINPFDGEVLAEQPTSYYEAIMRPVKDYEMLIVASPMYPVDAMTRYGRVVCPGSVGFPPGKEHKATFALVDVDTLKPKFIEVEYDKKIIEERIRAEGLPEEIIKILYHGGRP
# B3: PF0380 (conserved hypothetical protein) (natural protein)
# chain: MGVEKVPKYDIPVKKVEYVFIELDKMKPHEQLVQRELEDFIESVTGSGIFWKPMLLAKIPGTDEYLIVDGHHRWAGLQKLGAKRAPSVILDYFDEGVKVYTWYPAFKGDVNKVIERLKAEGLEVIEDEKAEEKAEKGEIAFALIGEKSFAIPGGLEEQKKVSKVLDEMDQAKEIELVYYGLKEDAKADMEKGEIDYVFIRKAPTKEEVMELVKRGEVFSPKTTRHVLPFIPDKIDVKLEDLF
# B4: PF0259 (conserved hypothetical protein) (natural protein)
# chain: MAVIIEFSLIPLGEVSVSKYIAEAIKLLEEKGVKYQLTPMGTIIEVGSVEEGLKIVGEAHELMFKLGVKRVVTHIKIDDRRDKERKMEDKVKSVIEKVKK
# B5: PF0939 (isopropylmalate dehydratase) (natural protein)
# chain: MKARGRAWKYGDNIDTDVIIPARYLNTSDPKELAQHVLEDLDPEFRYKMKPGDIIVAGENFGCGSSREHAPLAIKAAGVSAVIAKSFARIFYRNAINIGLPILEAPEAVERIETGDEIEIDFSTGEIRNLTKGEVYHANPFPEFIMEIIKAGGLVEWAKRRLAK
# B6: ferredoxin (PF1909, Fd) (natural protein)
# chain: AWKVSVDQDTCIGDAICASLCPDVFEMNDEGKAQPKVEVIEDEELYNCAKEAMEACPVSAITIEEA
# B7: PF1372 (conserved hypothetical protein) (natural protein)
# chain: MTEIRYYKIGEDRFKISEDEVARRELRVAKVSDDVIQIQEEVHGIIALVGATSSVNIKKEELKELVKLVREEFGWDI
# B8: PF0715 (NADH oxidase) (natural protein)
# chain: MEFFEVLKKRRSIRRFQDKPVPRELIEKLLEAAFLSPSSYNKRPCHFIVVDDREKLEALSKSKLGASGLKTAPVAIVVTADESKSDVWIEDASIAAEHIHLASYALGLASFWVQIRNRMHNETKTAEEYVRELLNIPENYRVLCIIGVGYPAEDKPPHGNEVFEWEKVSYNEFGKRFK
# B9: PF1911 (ferredoxin NADP reductase) (natural protein)
# chain: MYKILEKKEIAMRNTWYKVYAPHVAKKVQPGQFVIVRAFPNGERIPLTPVMWDREEGWIVLIVFTRGKTTMRMAVELKEGDSLLNVAGPLGTPVPMEKFGKILAIGAYTGIVEVYPIAKAWQEIGNDVTTLHVTFEPMVILKEELEKAVTRHIVEPVPLNPNQDFLANMKNVSQRLKEKVRELLESEDWDLVFMVGPVGDQKQVFEVVKEYGVPMKVDLHPIMVDGTGMCGACRVTVGGEVKFACVDGPEFDAYQVDWDELIHRVGFYAKLEKLALEKYMEELKAKGVI
# B10: PF0230 (ArsR transcription regulator) (natural protein)
# chain: MTKRVKVITDPEVIKVMLEDTRRKILQLLRNREMTISQLSEILGKMPQTIYHHIEKLKEAGLVEVKRTEMKGNLVEKYYGRTADVFYINLYMGDEELRYLARSRLKTKLDIFKKLGYKFDEEELLNVMDRILEKEHEVKVEISKEIENVEDSLKEFSNEDIIHAIEWLAMARLAQDEEYIELVKKLGQILKR
# B11: superoxide reductase (PF1281, SOR) (enzyme)
# chain: MISETIRSGDWKGEKHVPVIEYEREGELVKVKVQVGKEIPHPNTTEHHIRYIELYFLPEGENFVYQVGRVEFTAHGESVNGPNTSDVYTEPIAYFVLKTKKKGKLYALSYCNIHGLWENEVTLE
# B12: PF0094 (glutaredoxin-like) (natural protein)
# chain: MGLISDADKKVIKEEFFSKMVNPVKLIVFVRKDHCQYCDQLKQLVQELSELTDKLSYEIVDFDTPEGKELAKRYRIDRAPATTITQDGKDFGVRYFGLPAGHEFAAFLEDIVDVSREETNLMDETKQAIRNIDQDVRILVFVTPTCPYCPLAVRMAHKFAIENTKAGKGKILGDMVEAIEYPEWADQYNVMAVPKIVIQVNGEDRVEFEGAYPEKMFLEKLLSALS
# B13: PF1033 (thioredoxin-like fold) (natural protein)
# chain: MIVIGEKFPEVEVKTTHGVIKLPDHFTKQGKWFMLFSHPADFTPVCTTEFYGLQIRLEKFRELGVEPIGLSVDQVFSHLKWMEWIKEKLGVEIEFPVIADDRGDLAEKLGMIPSGSTITARAVFIVDDKGIIRAIVYYPAEVGRDWDEILRLVKALKISTEKGVALPHKWPNNELIGDKVIVPPASSVEQIKEREEAKAKGEIECYDWWFCYKKLE
# B14: acetyl-CoA synthetase subunit (PF1787) (natural protein)
# chain: MDRVAKAREIIEKAKAENRPLVEPEAKEILKLYGIPVPEFKVARNEEEAVKFSGEIGYPVVMKIVSPQIIHKSDAGGVKINIKNDEEAREAFRTIMQNARNYKPDADLWGVIIYRMLPLGREVIVGMIRDPQFGPAVMFGLGGIFVEILKDVSFRVAPITKEDALEMIREIKAYPILAGARGEKPVNIEALADIIVKVGELALELPEIKEIDINPIFAYEDSAIAVDARMIL
# B15: PF1950 (phosphoribosyl transferase) (natural protein)
# chain: MKKFPAYLASWEDIENWAKAGAWKVLESGWMPDVIVGLARGGWIAARLYCDYLGVKDLVSIKVEHWGVTATPDGRARLKYGAQYDFEGKKVLIVDDITDTGESMSLAYEYMKSRNPAEIRTATLLNIKGSKFVPDYYAKDIDWVWVVFPWNFVEDMINLTNNLFEEKDKLTTDEIISLFKELHGIEVPREKLEEALRMAEKRKIFKFENGFWTKV
# B16: PF0014/0015 complex (complex)
# chain 1: MEEKKPVNLVLPEVENAIFIEGYPGVGLVGHIAANFLAKELDMDLIGYVDSLFIPPMSLILEGRPTPPLRFYGKNNIIIAIADIFLPPTLVNEIAKEIVNYLKKVNAEKVISLAGMGIGFFKDTFEVWGIGGSEEENKELESLGVKILKYGSITGMSGKLLWEASRAGLKSYVLLGETFGDRPDPRAAANVVEVLNKMLGLNVSVEPLLKEAEMIEEQLRRMHEQMEEARRKMERQYETMYL
# chain 2: MVVEIPLLSGIARRTLDALMRNPIRTVEIRNARNYMTLEKVKEGDLVFLTYESLEDVMRGTEGIIAMVTRMEKSHQRVPWEESDEREISICRVQLKLVGLGRVVEVQEKNGVVFVKVREMLHHEISMG
# Target: the molecule itself
# Test: SAXS
Protein,stoichiometry N,percent of the sample as 2-mer [%]
B1,3,
B2,4,
B3,2,68
B4,8,
B5,2,
B6,2,40
B7,4,
B8,2,
B9,2,
B10,2,
B11,4,
B12,4 and 2,92
B13,10,
B14,3,
B15,2,

# Target: the molecule itself
# Test: SAXS
# Remark: another data set of the same source
row,Protein,stoichiometry N
1,B16,> 8
